Numbering of substitutions follows the chain as printed.
What was measured:
[1] = molecular target: T1, recombinant human CD47 (Novoprotein cat no. C321, lot no. 0329689) (human, UniProt Q08722 19-139); experiment: SPR (ProteOn XPR36), mAb captured on anti-mouse Fc, CD47 as analyte, 25 C, 1:1 model
T1 construct: Bought reagent
Experimental: (§1) Binding kinetics were measured at 25° C. using a BioRad ProteOn XPR36 optical biosensor equipped with GLM sensor chips and equilibrated with running buffer (HBS, 0.005% TWEEN-20, 0.1 mg/mL BSA, pH 7.4).
(§2) CD47 was tested in a three-fold dilution series starting at 100 nM.

[2] = molecular target: T2, human CD47 extracellular domain with a histidine- (HIS-) tag (Sino Biological, China) (human, UniProt Q08722 19-139); experiment: competition ELISA on huCD47 after 10A; cross-hatched cell
T2 construct: extracellular domain; also called huCD47; huCD47 protein (Sino Biological, China 10161-H08H); not shown: histidine tag

[3] = molecular target: T1, recombinant human CD47 (Novoprotein cat …); experiment: SPR summary table, 25 C
Experimental: as §1, §2

[4] = molecular target: T2, human CD47 extracellular domain with a …; experiment: competition ELISA on huCD47 after 10A
Experimental: (§3) A competition ELISA was performed to establish competitive binding bins. […] After washing, wells were incubated with an AlivaMab monoclonal antibody representing one of seven unique competition bins. After 1 hour the wells were washed and incubated with individual clonal anti-huCD47 AlivaMab hybridoma supernatants. […] Individual AlivaMab Mouse antibodies that were unable to bind in the presence of a mouse antibody are considered to be in the same epitope bin as that particular mouse antibody.

[5] = molecular target: T3, recombinant CD47-Fc (Sino Biologics) (human, UniProt Q08722 19-139); experiment: competition ELISA: HIS-tagged SIRP α binding to plate-bound CD47-Fc, antibody titrated
T3 construct: Bought reagent; also called human CD47-Fc; not shown: Fc

[6] = molecular target: T2, human CD47 extracellular domain with a …; experiment: competition ELISA on huCD47, row G1 Alone
Experimental: as §3

[7] = molecular target: T2, human CD47 extracellular domain with a …; experiment: competition ELISA on huCD47 after 27A
Experimental: as §3

[8] = molecular target: T2, human CD47 extracellular domain with a …; experiment: competition ELISA on huCD47 after 156A
Experimental: as §3

[9] = molecular target: T2, human CD47 extracellular domain with a …; experiment: competition ELISA on huCD47 after 1A
Experimental: as §3

[10] = molecular target: T2, human CD47 extracellular domain with a …; experiment: competition ELISA on huCD47 after 35A
Experimental: as §3

[11] = molecular target: T2, human CD47 extracellular domain with a …; experiment: competition ELISA on huCD47 after 141A
Experimental: as §3

B1: anti-CD47 AlivaMab antibody 107 (antibody, IgG1, V domains shown)
VH: QVQLQESGPGLMKPSETLSLTCTVSGGSISSYYWTWIRQPPGKGLEWIGYIYYSGSTNYNPSLKSRVTISVDTSKNQFSLKLSSVTAADTAVYYCARGRGALTAWGQGTLVTVSS
VL: DIQLTQSPSFLSASVGDRVTITCRASQDIGSYLAWCQQKPGKAPKLLIYAASTLQGGVPSRFSGSGSGTEFTLTISSLQPEDFATYYCQQLNSYPLTFGGGTKVEIK
notes: Chimeric AlivaMab Mouse mAb from hybridoma: human V, CH1 and upper hinge, mouse middle hinge, CH2 and CH3, human kappa light chain
[1]
  Kd: 0.163 nM
  koff: 0.00093 s⁻¹
  kon: 5.7e+06 M⁻¹ s⁻¹
[2]
  competition matrix cell (no name or unit printed): 85
[3]
  Kd: 0.16 nM
  koff: 0.00093 s⁻¹
  kon: 5.7e+06 M⁻¹ s⁻¹
[4]
  competition matrix cell (no name or unit printed): 100
[5]
  IC50: 2.7 nM
[6]
  competition matrix cell (no name or unit printed): 100
[7]
  competition matrix cell (no name or unit printed): 106

B2: anti-CD47 AlivaMab antibody 164 (antibody, IgG1, V domains shown)
VH: B1 VH with M12V, T35S, I51V, S56G, G98K, A101T, L102F, T103D, A104Y
VL: DIQMTQSPSSVSASVGDRVTITCRASQGISSWLAWYQQKPGKAPKLLIYAASSLQSGVPSRFSGSGSGTDFTLTISSLQPEDFATYFCQQANSFPLTFGGGTKVEIK
notes: Chimeric AlivaMab Mouse mAb from hybridoma: human V, CH1 and upper hinge, mouse middle hinge, CH2 and CH3, human kappa light chain; also called clone 164; mAb 164
[8]
  competition matrix cell (no name or unit printed): 120
[9]
  competition matrix cell (no name or unit printed): 103
[4]
  competition matrix cell (no name or unit printed): 97
[10]
  competition matrix cell (no name or unit printed): 117
[11]
  competition matrix cell (no name or unit printed): 100
[5]
  IC50: 4.8 nM
[6]
  competition matrix cell (no name or unit printed): 100
[7]
  competition matrix cell (no name or unit printed): 108

B3: anti-CD47 AlivaMab antibody 101 (antibody, IgG1, V domains shown)
VH: B1 VH with M12V, S31F, Y50F
VL: not shown
notes: as for B1
[2]
  competition matrix cell (no name or unit printed): 61
[4]
  competition matrix cell (no name or unit printed): 92
[5]
  IC50: 15 nM
[6]
  competition matrix cell (no name or unit printed): 100

B4: anti-CD47 AlivaMab antibody 90 (antibody, IgG1, V domains shown)
VH: B1 VH with M12V, S30N, S31N, T35S, N60H, S83T, Y93F, G100R
VL: B1 VL with L4V, D28G, G30S, C36Y, G56S, V104M
notes: Chimeric AlivaMab Mouse mAb from hybridoma: human V, CH1 and upper hinge, mouse middle hinge, CH2 and CH3, human kappa light chain; also called clone 90; mAb 90
[5]
  IC50: 53.6 nM

B5: anti-CD47 AlivaMab antibody 10 (antibody, IgG2a, V domains shown)
VH: B1 VH with M12V, S30R, S31T, T35S, G98K, R99K, L102F, T103D, A104I, L110M
VL: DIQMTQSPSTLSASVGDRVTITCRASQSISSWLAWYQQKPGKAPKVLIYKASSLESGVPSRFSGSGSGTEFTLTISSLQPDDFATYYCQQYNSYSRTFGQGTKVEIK
notes: Chimeric AlivaMab Mouse mAb from hybridoma: human V, CH1 and upper hinge, mouse middle hinge, CH2 and CH3, human kappa light chain; also called clone 10; mAb 10
[5]
  IC50: 4.7 nM

B6: anti-CD47 AlivaMab antibody 87 (antibody, IgG1, V domains shown)
VH: B1 VH with M12V, T35S, S83N, G98K, G100A, A101F, T103D, A104Y
VL: B2 VL with V11L, S31N, W32Y, Y36F, L46S, S56G, R61K, F87Y, A91Y, F94Y
notes: Chimeric AlivaMab Mouse mAb from hybridoma: human V, CH1 and upper hinge, mouse middle hinge, CH2 and CH3, human kappa light chain; also called clone 87; mAb 87
[5]
  IC50: 3 nM

B7: anti-CD47 AlivaMab antibody 144 (antibody, IgG1, V domains shown)
VH: B1 VH with M12V, T35S, S56T, G98K, A101E, L102F, T103D, A104Y
VL: B2 VL with V15E, S31R, F87Y
notes: Chimeric AlivaMab Mouse mAb from hybridoma: human V, CH1 and upper hinge, mouse middle hinge, CH2 and CH3, human kappa light chain; also called clone 144; mAb 144
[5]
  IC50: 10 nM

B8: anti-CD47 AlivaMab antibody 91 (antibody, IgG1, V domains shown)
VH: B1 VH with M12V, S31T, T35S, S56T, G98K, G100D, L102F, T103D, A104I, L110M
VL: EIVLTQSPGTLSLSPGERATLSCRASQSVSSTYLAWSQQKPGQAPRLLIYGASSRATGIPDRFSGSGSGTDFTLTISRLEPEDFAVYYCQQYGSSRTFGQGTKVEIK
notes: Chimeric AlivaMab Mouse mAb from hybridoma: human V, CH1 and upper hinge, mouse middle hinge, CH2 and CH3, human kappa light chain; also called clone 91; mAb 91
[1]
  Kd: 0.154 nM
  koff: 0.00111 s⁻¹
  kon: 7.2e+06 M⁻¹ s⁻¹
[3]
  Kd: 0.15 nM
  koff: 0.00111 s⁻¹
  kon: 7.2e+06 M⁻¹ s⁻¹
[5]
  IC50: 2.1 nM

B9: anti-CD47 AlivaMab antibody 153 (antibody, IgG1, V domains shown)
VH: B1 VH with M12V, S30N, S31Y, T35S, G98K, G100S, A101S, L102Y, T103D, A104Y
VL: DIQMTQSPSAMSASVGDRVTITCRASQGISNYLAWFQQKPGKVPRRLIYAASSLQSGVPSRFSGSGSGTEFTLTISSLQPEDFATYYCLQHNSYPWTFGQGTKVEIK
notes: Chimeric AlivaMab Mouse mAb from hybridoma: human V, CH1 and upper hinge, mouse middle hinge, CH2 and CH3, human kappa light chain; also called clone 153; mAb 153
[5]
  IC50: 27.9 nM

B10: anti-CD47 AlivaMab antibody 102 (antibody, IgG1, V domains shown)
VH: B1 VH with M12V, S31N, T35S, G98K, G100D, A101T, L102F, T103D, A104I, L110M
VL: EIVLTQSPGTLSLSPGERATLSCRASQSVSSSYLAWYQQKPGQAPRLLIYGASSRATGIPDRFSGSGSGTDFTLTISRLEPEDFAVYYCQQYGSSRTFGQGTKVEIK
notes: as for B1
[1]
  Kd: 0.32 nM
  koff: 0.00221 s⁻¹
  kon: 6.9e+06 M⁻¹ s⁻¹
[3]
  Kd: 0.32 nM
  koff: 0.00221 s⁻¹
  kon: 6.9e+06 M⁻¹ s⁻¹
[5]
  IC50: 2.3 nM

B11: anti-CD47 AlivaMab antibody 5 (antibody, IgG1, V domains shown)
VH: B1 VH with M12V, T35S, R99K, A101G, L102T, T103D, A104Y
VL: B2 VL with F87Y, L96R, G100Q
notes: Chimeric AlivaMab Mouse mAb from hybridoma: human V, CH1 and upper hinge, mouse middle hinge, CH2 and CH3, human kappa light chain; also called clone 5; mAb 5
[2]
  competition matrix cell (no name or unit printed): 73
[4]
  competition matrix cell (no name or unit printed): 93
[10]
  competition matrix cell (no name or unit printed): 97
[5]
  IC50: 3.5 nM

B12: anti-CD47 AlivaMab antibody 106 (antibody, IgG1, V domains shown)
VH: QVQLQGSGPGLVKPSETLSLTCTVSGGSINNYYWSWIRQPPGKGLEWIGYIYYSGSTNSNPSLKSRVTISVDTSKNQFSLKLNSVTAADTAVYYCARKRDAFDIWGQGTMVTVSS
VL: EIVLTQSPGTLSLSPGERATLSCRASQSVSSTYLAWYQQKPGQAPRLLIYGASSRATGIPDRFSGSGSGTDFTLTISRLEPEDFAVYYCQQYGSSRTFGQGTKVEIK
notes: as for B1
[5]
  IC50: 2.9 nM

B13: anti-CD47 AlivaMab antibody 161 (antibody, IgG1, V domains shown)
VH: QVQLQESGPGLVKPSETLSLTCTVSGGSISSYYWSWIRQPPGKGLEWIGYIYYSGSTNYNPSLKSRVTISVDTSKNQFSLKLSSVTAADTAVYYCARSRYFDLWGRGTLVTVSS
VL: B9 VL with A13T, Y32F, R45K, W96Y, V104L
notes: Chimeric AlivaMab Mouse mAb from hybridoma: human V, CH1 and upper hinge, mouse middle hinge, CH2 and CH3, human kappa light chain; also called clone 161; mAb 161
[8]
  competition matrix cell (no name or unit printed): 112
[9]
  competition matrix cell (no name or unit printed): 106
[2]
  competition matrix cell (no name or unit printed): 89
[10]
  competition matrix cell (no name or unit printed): 109
[11]
  competition matrix cell (no name or unit printed): 107
[5]
  IC50: 3 nM
[6]
  competition matrix cell (no name or unit printed): 100
[7]
  competition matrix cell (no name or unit printed): 105

B14: anti-CD47 AlivaMab antibody 85 (antibody, IgG1, V domains shown)
VH: QVQLQESGPGLVKASETLSLTCTVSGGSISGYYWSWIRQPAGKGLEWIGRIYNSGSTNYNPSLKSRVTMSVDTSKNQFSLKLSSVTAADTAVYYCARQTYLDYWGQGTLVTVSS
VL: B9 VL with N31I, R45K, W96L, Q100G
notes: Chimeric AlivaMab Mouse mAb from hybridoma: human V, CH1 and upper hinge, mouse middle hinge, CH2 and CH3, human kappa light chain; also called clone 85; mAb 85
[8]
  competition matrix cell (no name or unit printed): 95
[9]
  competition matrix cell (no name or unit printed): 98
[2]
  competition matrix cell (no name or unit printed): 83
[10]
  competition matrix cell (no name or unit printed): 104
[11]
  competition matrix cell (no name or unit printed): 102
[5]
  IC50: 4.9 nM
[6]
  competition matrix cell (no name or unit printed): 100
[7]
  competition matrix cell (no name or unit printed): 98

B15: anti-CD47 AlivaMab antibody 14 (antibody, IgG1, V domains shown)
VH: B13 VH with S98K, Y100G, F101L, L103I, R106Q, L109M
VL: not shown
notes: Chimeric AlivaMab Mouse mAb from hybridoma: human V, CH1 and upper hinge, mouse middle hinge, CH2 and CH3, human kappa light chain; also called clone 14; mAb 14
[5]
  IC50: 3.5 nM

B16: anti-CD47 AlivaMab antibody 143 (antibody, IgG1, V domains shown)
VH: QVQLQESGPGLVKPSETLSLTCTVSGGSINNYYWSWIRQPPGKGLEWIGYIYYSGSTNYNPSLRSRVTISVDTSKNQFSLKLSSVAAADTAVYYCARQKGMDVWGQGTTVTVSS
VL: B9 VL with R45K, W96P
notes: Chimeric AlivaMab Mouse mAb from hybridoma: human V, CH1 and upper hinge, mouse middle hinge, CH2 and CH3, human kappa light chain; also called clone 143; mAb 143
[5]
  IC50: 96 nM
